Measured values reported in paper doi:10.1101/2024.03.24.586400 (bioRxiv, 2024).
No end group written: not given here.

Experiments:
Test in all cases: grating-coupled interferometry
[1] = target: SARNP UCM-1 and UCM-4 peptides
[2] = target: SARNP UCM-1 peptide (GCI) (human)
[3] = target: TREX-2^M, minimal recombinant TREX-2 complex (GANP Sac3 domain residues 582-1004, PCID2, SEM1) (human) (UniProt O60318)
[4] = target: UAP56 (DDX39B), recombinant wild type (human, UniProt Q13838 1-428)
Sequence of UAP56 (DDX39B), recombinant wild type (human, UniProt Q13838 1-428) (Q13838 whole entry): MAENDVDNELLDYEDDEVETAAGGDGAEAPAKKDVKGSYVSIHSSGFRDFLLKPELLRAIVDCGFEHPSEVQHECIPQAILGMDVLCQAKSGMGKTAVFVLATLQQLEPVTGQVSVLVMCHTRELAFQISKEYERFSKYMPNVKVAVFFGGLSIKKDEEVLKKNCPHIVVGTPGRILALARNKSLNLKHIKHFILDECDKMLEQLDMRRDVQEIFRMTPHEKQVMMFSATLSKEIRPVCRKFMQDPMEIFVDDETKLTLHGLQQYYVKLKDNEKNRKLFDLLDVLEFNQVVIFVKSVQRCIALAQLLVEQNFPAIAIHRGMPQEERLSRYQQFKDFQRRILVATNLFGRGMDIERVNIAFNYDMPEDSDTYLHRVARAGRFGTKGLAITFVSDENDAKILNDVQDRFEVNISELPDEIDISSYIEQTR

Sequence of UAP56 (DDX39B), recombinant wild type (from UniProt Q13838 1-428) (enzyme) (Q13838 whole entry): as above
Sequence of TREX-2^M, minimal recombinant TREX-2 complex (GANP Sac3 domain residues 582-1004, PCID2, SEM1) (human) (O60318 582-1004, chain 1 of 3): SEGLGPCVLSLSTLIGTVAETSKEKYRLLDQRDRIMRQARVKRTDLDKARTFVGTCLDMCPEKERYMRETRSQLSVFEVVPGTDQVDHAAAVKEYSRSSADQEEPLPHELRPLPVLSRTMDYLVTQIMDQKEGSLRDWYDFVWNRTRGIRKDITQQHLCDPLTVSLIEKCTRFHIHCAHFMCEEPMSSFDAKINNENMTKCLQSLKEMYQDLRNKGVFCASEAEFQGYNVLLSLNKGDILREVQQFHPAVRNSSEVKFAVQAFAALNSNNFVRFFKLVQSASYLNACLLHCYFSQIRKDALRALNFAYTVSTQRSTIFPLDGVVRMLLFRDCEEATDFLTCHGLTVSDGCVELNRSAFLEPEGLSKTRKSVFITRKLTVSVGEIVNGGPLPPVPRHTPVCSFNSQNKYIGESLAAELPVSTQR
Sequence of TREX-2^M, minimal recombinant TREX-2 complex (GANP Sac3 domain residues 582-1004, PCID2, SEM1) (human) (Q5JVF3 whole entry, chain 2 of 3, further chain, the tested form may be a part): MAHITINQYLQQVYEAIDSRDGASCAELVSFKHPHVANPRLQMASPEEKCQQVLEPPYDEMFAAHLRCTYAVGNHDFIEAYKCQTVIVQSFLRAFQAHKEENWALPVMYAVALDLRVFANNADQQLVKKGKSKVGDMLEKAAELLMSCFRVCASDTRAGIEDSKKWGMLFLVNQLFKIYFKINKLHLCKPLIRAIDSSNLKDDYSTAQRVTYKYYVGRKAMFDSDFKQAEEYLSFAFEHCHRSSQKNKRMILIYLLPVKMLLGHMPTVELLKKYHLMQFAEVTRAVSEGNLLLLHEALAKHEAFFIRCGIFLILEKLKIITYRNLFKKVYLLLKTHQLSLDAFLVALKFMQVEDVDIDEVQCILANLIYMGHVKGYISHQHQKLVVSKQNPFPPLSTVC
Sequence of TREX-2^M, minimal recombinant TREX-2 complex (GANP Sac3 domain residues 582-1004, PCID2, SEM1) (human) (P60896 whole entry, chain 3 of 3, further chain, the tested form may be a part): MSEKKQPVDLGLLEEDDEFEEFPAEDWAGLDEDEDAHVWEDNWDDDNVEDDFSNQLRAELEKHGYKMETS

UAP56 (DDX39B), recombinant wild type (from UniProt Q13838 1-428) (enzyme)
Kd [1]: 10 to 20 µM
Kd [2]: 12 µM

UAP56 lacking residues 1-28 (from UniProt Q13838 28-428) (domain or fragment)
Kd [3]: 170 nM

MDMSLDDII (also: biotin, position not given here) [ALYREF N-UBM peptide (GCI)]
Kd [4]: 24 µM
